Residue numbers refer to the chain shown, from its start. Names may count otherwise.
What was measured:
[1] = In vivo cis-α-irone production from glucose/glycerol in strain 2O31 cultures; assay type: cell-based, Escherichia coli; details: pMT plasmid transformed into strain 2O31; 2 days
Excerpt: The advantage of in vivo biotransformation is that microbial cells can regenerate expensive co-factors rendering the scale-up bioprocess more cost-effective. […] Thus, pMT was incorporated into our psi-ionone producing microbe^7,8, to synthesize cis-α-irone from cheap renewable carbon sources (glucose/glycerol) (FIG. 4 and FIG. 19). To achieve high productivity, the psi-ionone production was first optimized by multidimensional heuristic process (MHP)^15, and strain 2O31 was identified to be the highest producer for psi-ionone (FIG. 19b). 2O31 was used as the base strain to probe cis-α-irone production in vivo (Table 5). Moreover, to improve the plasmid stability, auxotrophic strain was used with chemically defined media^1. The plasmid carrying pMT1, pMT7 or pMT10 was transformed into the strain 2O31, and produced less than 0.01, about 2 and about 3 mg/L cis-α-irone respectively in 2 days (FIG. 19d). To further optimize irone production with pMT10, three different culture conditions were tested: no methionine or dodecane added (control); 10 mM methionine added; 10 mM methionine and 20% dodecane added. In the control reaction, approximately 4.8 mg/L or 0.85 mg/L/OD cis-α-irone was produced after 3-day incubation (2O31-pMT10, FIGS. 4c and 4e). […] Lastly, when both methionine and dodecane were added, psi-ionone was accumulated in the organic layer and only ˜0.3 mg/L or ˜0.05 mg/L/OD cis-α-irone was produced (2O31-pMT10, FIGS. 4c, d and e). […] The limited methylation efficiency might be due to insufficient cofactor or SAH inhibition. […] In fact, the total amount of psi-ionone and cis-α-irone decreased (FIG. 4c, and d). As SAM biosynthesis is regulated by metJ in E. coli^16,17, the aforementioned six reactions were subsequently examined under metJ deleted genetic background (2O31, ΔmetJ). An increase in cis-α-irone titer to ˜5.7 mg/L was produced by 2O31 ΔmetJ-pMT10 strain with 10 mM methionine supplementation (FIG. 4c). An increase in specific cis-α-irone titer to ˜1.2 mg/L/OD was produced by 2O31 ΔmetJ-pMT10r strain without methionine supplementation (FIG. 4d). […]

[2] = Steady-state kinetics of purified pMT enzyme, substrate psi-ionone; assay type: biochemical; details: pMT10 vs pMT7 (Table 3)
Method: The steady-state kinetic parameters of pMT7 were determined (Table 3). […] While determining the steady-state kinetics of pMT7, it was noticed that the reaction with purified pMT7 stopped at 6 h before significant conversion had taken place (FIG. 15a). Moreover, while using cell extracts containing pMT7, the reaction reached a plateau after 1-day incubation (FIG. 15b). […] Since pMT7 is an hexamer in solution^10, its oligomeric state before and after the reaction was examined. […] (28 C) overnight as compared to 4° C. […] It was further tested if the enzyme was subject to feedback inhibition, as the cofactor product SAH is a potent inhibitor of methyltransferases^12.
To determine the purified enzyme kinetics and in vivo production, the reaction mixture was extracted with 0.5× or 1× volume of ethyl acetate and the organic phase was diluted appropriately before subjected to GCMS analysis. The samples were analyzed on an Agilent Intuvo 9000 GC system equipped with Agilent DB-WAX Ultra Inert Intuvo GC column (30 m×250 μm×0.25 μm) and Agilent 5977B mass spectrometry with high efficiency source. 1 μl organic phase was injected at the split ratio 10:1 at 250° C. […] The concentration of psi-ionone and irone were calculated by interpolating with a standard curve prepared by synthetic standards.

B1: pMT7: pMT1 with Y200F S182E L273V L180A A202L Y65F (protein)
chain: MPQEARTPQQQVTADEVGDWYDKFGEVYHLTLGESVHCGLWFPPDAPVPQDMELVTMSSQAQDRFTDYLIETLDPKAGQHLLDIGCGTGRTALKAARQRGIAVTGVAVSKEQIAAANRLAAGHGLTERLTFEVADAMRLPYEDESFDCAWAIESLCHMDRAKALGEAWRVLKPGGDLLVAEEVVTEELTEPETALFETLFALNVPPRLGEFFDIVSGAGFHTLSLKDLSANLAMTMNVFALGVYSRRAEFTERFGAEFVDGLLAGLGSAQETVIRKTRFFMATLRKPAV
modifications: Modified from pMT1
notes: pMT1 with Y200F S182E L273V L180A A202L Y65F
[1]
  cis-α-irone produced: about 2 mg/L

B2: pMT10: pMT1 with Y200F S182E L273V L180A A202L Y65F C156A T91P (protein)
chain: B1 chain with T91P, C156A
modifications: Modified from pMT1
notes: pMT1 with Y200F S182E L273V L180A A202L Y65F C156A T91P
[1]
  cis-α-irone produced: about 3 mg/L
[2]
  improvement of catalytic efficiency: 10 fold

Reference: patent US20240240209A1, “SYNTHESIS OF ENANTIOPURE CIS-A-IRONE FROM A RENEWABLE CARBON SOURCE” (Agency for Science, Technology and Research, priority 2021, published 2024)
